{
  "source": "ChEMBL document CHEMBL3525932",
  "about": "“Comparison of metabolism of sesamin and episesamin by drug-metabolizing enzymes in human liver” (Drug Metab Dispos, 2012)",
  "proteins": {"B1": {"name": "Cytochrome P450 2C9 (Homo sapiens) (protein)", "chain": "MDSLVVLVLCLSCLLLLSLWRQSSGRGKLPPGPTPLPVIGNILQIGIKDISKSLTNLSKVYGPVFTLYFGLKPIVVLHGYEAVKEALIDLGEEFSGRGIFPLAERANRGFGIVFSNGKKWKEIRRFSLMTLRNFGMGKRSIEDRVQEEARCLVEELRKTKASPCDPTFILGCAPCNVICSIIFHKRFDYKDQQFLNLMEKLNENIKILSSPWIQICNNFSPIIDYFPGTHNKLLKNVAFMKSYILEKVKEHQESMDMNNPQDFIDCFLMKMEKEKHNQPSEFTIESLENTAVDLFGAGTETTSTTLRYALLLLLKHPEVTAKVQEEIERVIGRNRSPCMQDRSHMPYTDAVVHEVQRYIDLLPTSLPHAVTCDIKFRNYLIPKGTTILISLTSVLHDNKEFPNPEMFDPHHFLDEGGNFKKSKYFMPFSAGKRICVGEALAGMELFLFLTSILQNFNLKSLVDPKNLDTTPVVNGFASVPPFYQLCFIPV"}, "B2": {"name": "Catechol O-methyltransferase (Homo sapiens) (protein)", "chain": "MPEAPPLLLAAVLLGLVLLVVLLLLLRHWGWGLCLIGWNEFILQPIHNLLMGDTKEQRILNHVLQHAEPGNAQSVLEAIDTYCEQKEWAMNVGDKKGKIVDAVIQEHQPSVLLELGAYCGYSAVRMARLLSPGARLITIEINPDCAAITQRMVDFAGVKDKVTLVVGASQDIIPQLKKKYDVDTLDMVFLDHWKDRYLPDTLLLEECGLLRKGTVLLADNVICPGAPDFLAHVRGSSCFECTHYQSFLEYREVVDGLEKAIYKGPGSEAGP"}, "B3": {"name": "Cytochrome P450 2C19 (Homo sapiens) (protein)", "chain": "MDPFVVLVLCLSCLLLLSIWRQSSGRGKLPPGPTPLPVIGNILQIDIKDVSKSLTNLSKIYGPVFTLYFGLERMVVLHGYEVVKEALIDLGEEFSGRGHFPLAERANRGFGIVFSNGKRWKEIRRFSLMTLRNFGMGKRSIEDRVQEEARCLVEELRKTKASPCDPTFILGCAPCNVICSIIFQKRFDYKDQQFLNLMEKLNENIRIVSTPWIQICNNFPTIIDYFPGTHNKLLKNLAFMESDILEKVKEHQESMDINNPRDFIDCFLIKMEKEKQNQQSEFTIENLVITAADLLGAGTETTSTTLRYALLLLLKHPEVTAKVQEEIERVIGRNRSPCMQDRGHMPYTDAVVHEVQRYIDLIPTSLPHAVTCDVKFRNYLIPKGTTILTSLTSVLHDNKEFPNPEMFDPRHFLDEGGNFKKSNYFMPFSAGKRICVGEGLARMELFLFLTFILQNFNLKSLIDPKDLDTTPVVNGFASVPPFYQLCFIPV"}, "B4": {"name": "Catechol O-methyltransferase (Rattus norvegicus) (protein)", "chain": "MPLAAVSLGLLLLALLLLLRHLGWGLVTIFWFEYVLQPVHNLIMGDTKEQRILRYVQQNAKPGDPQSVLEAIDTYCTQKEWAMNVGDAKGQIMDAVIREYSPSLVLELGAYCGYSAVRMARLLQPGARLLTMEMNPDYAAITQQMLNFAGLQDKVTILNGASQDLIPQLKKKYDVDTLDMVFLDHWKDRYLPDTLLLEKCGLLRKGTVLLADNVIVPGTPDFLAYVRGSSSFECTHYSSYLEYMKVVDGLEKAIYQGPSSPDKS"}, "B5": {"name": "Cytochrome P450 1A2 (Homo sapiens) (protein)", "chain": "MALSQSVPFSATELLLASAIFCLVFWVLKGLRPRVPKGLKSPPEPWGWPLLGHVLTLGKNPHLALSRMSQRYGDVLQIRIGSTPVLVLSRLDTIRQALVRQGDDFKGRPDLYTSTLITDGQSLTFSTDSGPVWAARRRLAQNALNTFSIASDPASSSSCYLEEHVSKEAKALISRLQELMAGPGHFDPYNQVVVSVANVIGAMCFGQHFPESSDEMLSLVKNTHEFVETASSGNPLDFFPILRYLPNPALQRFKAFNQRFLWFLQKTVQEHYQDFDKNSVRDITGALFKHSKKGPRASGNLIPQEKIVNLVNDIFGAGFDTVTTAISWSLMYLVTKPEIQRKIQKELDTVIGRERRPRLSDRPQLPYLEAFILETFRHSSFLPFTIPHSTTRDTTLNGFYIPKKCCVFVNQWQVNHDPELWEDPSEFRPERFLTADGTAINKPLSEKMMLFGMGKRRCIGEVLAKWEIFLFLAILLQQLEFSVPPGVKVDLTPIYGLTMKHARCEHVQARLRFSIN"}},
  "key": {"[1]": {"substrate": "c1cc2c(cc1[C@H]1OC[C@H]3[C@@H]1CO[C@@H]3c1ccc3c(c1)OCO3)OCO2", "assay": "Activity of recombinant human CYP2C9 expressed in Saccharomyces cerevisiae AH22 cells assessed as enzyme-mediated sesamin monocatecholization after 15 mins by Michaelis-Menten plot analysis in presence of NADPH", "type": "ADME, cell-based"}, "[2]": {"substrate": "[H][C@]12CO[C@@H](c3ccc(O)c(O)c3)[C@@]1([H])CO[C@@H]2c1ccc2c(c1)OCO2", "assay": "(§1) Drug metabolism in human liver cytosol assessed as COMT-mediated methylation after 10 to 30 mins by HPLC analysis in presence of SAM", "type": "ADME"}, "[3]": {"substrate": "[H][C@]12CO[C@@H](c3ccc4c(c3)OCO4)[C@@]1([H])CO[C@@H]2c1ccc(O)c(O)c1", "assay": "as §1", "type": "ADME"}, "[4]": {"substrate": "[H][C@]12CO[C@H](c3ccc4c(c3)OCO4)[C@@]1([H])CO[C@@H]2c1ccc(O)c(O)c1", "assay": "as §1", "type": "ADME"}, "[5]": {"substrate": "[H][C@]12CO[C@H](c3ccc4c(c3)OCO4)[C@@]1([H])CO[C@@H]2c1ccc(O)c(O)c1", "assay": "Activity of recombinant human CYP2C19 expressed in Saccharomyces cerevisiae AH22 cells assessed as enzyme-mediated sesamin dicatechol formation after 15 mins by HPLC analysis in presence of NADPH", "type": "ADME, cell-based"}, "[6]": {"substrate": "[H][C@]12CO[C@@H](c3ccc(O)c(O)c3)[C@@]1([H])CO[C@@H]2c1ccc2c(c1)OCO2", "assay": "(§2) Activity of recombinant human CYP2C19 expressed in Saccharomyces cerevisiae AH22 cells assessed as enzyme-mediated episesamin dicatechol formation after 15 mins by HPLC analysis in presence of NADPH", "type": "ADME, cell-based"}, "[7]": {"substrate": "[H][C@]12CO[C@@H](c3ccc4c(c3)OCO4)[C@@]1([H])CO[C@@H]2c1ccc(O)c(O)c1", "assay": "as §2", "type": "ADME, cell-based"}, "[8]": {"substrate": "[H][C@]12CO[C@@H](c3ccc(O)c(O)c3)[C@@]1([H])CO[C@@H]2c1ccc2c(c1)OCO2", "assay": "(§3) Drug metabolism in Sprague-Dawley rat liver cytosol assessed as COMT-mediated methylation after 10 to 30 mins by HPLC analysis in presence of SAM", "type": "ADME"}, "[9]": {"substrate": "[H][C@]12CO[C@@H](c3ccc4c(c3)OCO4)[C@@]1([H])CO[C@@H]2c1ccc(O)c(O)c1", "assay": "as §3", "type": "ADME"}, "[10]": {"substrate": "[H][C@]12CO[C@H](c3ccc4c(c3)OCO4)[C@@]1([H])CO[C@@H]2c1ccc(O)c(O)c1", "assay": "as §3", "type": "ADME"}, "[11]": {"substrate": "c1cc2c(cc1[C@H]1OC[C@H]3[C@@H]1CO[C@@H]3c1ccc3c(c1)OCO3)OCO2", "assay": "Activity of recombinant human CYP1A2 expressed in Saccharomyces cerevisiae AH22 cells assessed as enzyme-mediated sesamin monocatecholization after 15 mins by Michaelis-Menten plot analysis in presence of NADPH", "type": "ADME, cell-based"}},
  "data": [
    {"protein": "B1", "values": [
      {"measurement": "Km", "setting": "[1]", "result": 5.4, "unit": "µM"},
      {"measurement": "kcat", "setting": "[1]", "result": 0.0517, "unit": "s⁻¹"},
      {"measurement": "kcat/Km", "setting": "[1]", "result": 9500, "unit": "M⁻¹ s⁻¹"}
    ]},
    {"protein": "B2", "values": [
      {"measurement": "Km", "setting": "[2]", "result": 2.5, "unit": "µM"},
      {"measurement": "Vmax", "setting": "[2]", "result": 0.00071, "unit": "µmol/min"},
      {"measurement": "Km", "setting": "[3]", "result": 2.4, "unit": "µM"},
      {"measurement": "Vmax", "setting": "[3]", "result": 0.00059, "unit": "µmol/min"},
      {"measurement": "Km", "setting": "[4]", "result": 5.6, "unit": "µM"},
      {"measurement": "Vmax", "setting": "[4]", "result": 0.0013, "unit": "µmol/min"}
    ]},
    {"protein": "B3", "values": [
      {"measurement": "Km", "setting": "[5]", "result": 5.1, "unit": "µM"},
      {"measurement": "kcat", "setting": "[5]", "result": 0.233, "unit": "s⁻¹"},
      {"measurement": "Km", "setting": "[6]", "result": 7.3, "unit": "µM"},
      {"measurement": "kcat", "setting": "[6]", "result": 0.25, "unit": "s⁻¹"},
      {"measurement": "Km", "setting": "[7]", "result": 7.3, "unit": "µM"},
      {"measurement": "kcat", "setting": "[7]", "result": 0.25, "unit": "s⁻¹"}
    ]},
    {"protein": "B4", "values": [
      {"measurement": "Km", "setting": "[8]", "result": 5.5, "unit": "µM"},
      {"measurement": "Vmax", "setting": "[8]", "result": 0.0024, "unit": "µmol/min"},
      {"measurement": "Km", "setting": "[9]", "result": 7.7, "unit": "µM"},
      {"measurement": "Vmax", "setting": "[9]", "result": 0.0032, "unit": "µmol/min"},
      {"measurement": "Km", "setting": "[10]", "result": 9.2, "unit": "µM"},
      {"measurement": "Vmax", "setting": "[10]", "result": 0.0033, "unit": "µmol/min"}
    ]},
    {"protein": "B5", "values": [
      {"measurement": "Km", "setting": "[11]", "result": 15, "unit": "µM"},
      {"measurement": "kcat", "setting": "[11]", "result": 0.0833, "unit": "s⁻¹"},
      {"measurement": "kcat/Km", "setting": "[11]", "result": 5500, "unit": "M⁻¹ s⁻¹"}
    ]}
  ]
}
